Series [1] relates to His-RdRp (NS7, RNA-dependent RNA polymerase) (Human norovirus GII.P3_GII.3 U201 strain). Nature of the series: competition. To be noted: 50 mM Tris-HCl pH 7.4, 1.7% glycerol, 5 mM beta-mercaptoethanol, 0.5 ug/ul yeast RNA, 30 C 10 min, 20 ul; native PAGE at 4 C.
The target in series [2] is T1, HuNV RdRp (His-RdRp; GII.P3 RdRp) (Norwalk-like virus, UniProt Q8JXI4).
T1 construct: mature NS7 RdRp from ORF1 genome polyprotein, cDNA nt 3581-5113; N-terminal His6 tag (pET28b), E. coli ArcticExpress (DE3); 57 kDa by SDS-PAGE
As to the kind of experiment: RNA synthesis, dsRNA product after S1 nuclease, native PAGE with SYBR Green II. In kind it is biochemical.

With 31AS RNA, the binding signal (% complex remaining) in series [1] is 47.3.

In series [1], 100AS RNA gave a binding signal (% complex remaining) of 13.5.

Regarding `C[C@@]1(O)[C@H](O)[C@@H](COP(=O)(O)OP(=O)(O)OP(=O)(O)O)O[C@H]1n1ccc(N)nc1=O` [2′CM-CTP, 2′-C-methylcytidine triphosphate], half-maximal inhibition in series [2] (IC50) required 57 ± 20 µM.

Source of the values: paper PMC8526979, “The predicted stem-loop structure in the 3′-end of the human norovirus antigenomic sequence is required for its genomic RNA synthesis by its RdRp” (The Journal of Biological Chemistry, 2021).
